Experimental data published in patent US20200199241A1 (Chugai, published 2020).

B1: IgG1-F290 (antibody)
heavy: QVQLQESGPGLVKPSETLSLTCAVSGHSISHDHAWSWVRQPPGEGLEWIGFISYSGITNYNPSLQGRVTISRDNSKNTLYLQMNSLRAEDTAVYYCARSLARTTAMDYWGEGTLVTVSSASTKGPSVFPLAPSSKSTSGGTAALGCLVKDYFPEPVTVSWNSGALTSGVHTFPAVLQSSGLYSLSSVVTVPSSSLGTQTYICNVNHKPSNTKVDKKVEPKSCDKTHTCPPCPAPELLGGPSVFLFPPKPKDTLYISREPEVTCVVVDVSHEDPEVKFNWYVDGVEVHNAKTKPREEQYNSTYRVVSVLTVLHQDWLNGKEYKCKVSNKALPAPIEKTISKAKGQPREPQVYTLPPSRDELTKNQVSLTCLVKGFYPSDIAVEWASNGQPENNYKTTPPVLDSDGSFFLYSKLTVDKSRWQQGNVFSCSVYHEALHYHYTQKSLSLSP
light: not shown
notes: EU numbering; copies: 2 + 2
B2: IgG1-F295 (antibody)
heavy: QVQLQESGPGLVKPSETLSLTCAVSGHSISHDHAWSWVRQPPGEGLEWIGFISYSGITNYNPSLQGRVTISRDNSKNTLYLQMNSLRAEDTAVYYCARSLARTTAMDYWGEGTLVTVSSASTKGPSVFPLAPSSKSTSGGTAALGCLVKDYFPEPVTVSWNSGALTSGVHTFPAVLQSSGLYSLSSVVTVPSSSLGTQTYICNVNHKPSNTKVDKKVEPKSCDKTHTCPPCPAPELLGGPKVFLFPPKPKDTLYISRTPEVTCVVVDVSHEDPEVKFNWYVDGVEVHNAKTKPREEQYNSTYRVVSVLTVLHQDWLNGKEYKCKVSNKALPAPIEKTISKAKGQPREPQVYTLPPSRDELTKNQVSLTCLVKGFYPSDIAVAWASNGQPENNYKTTPPVLDSDGSFFLYSKLTVDKSRWQQGNVFSCSVFHEALHYHYTQKSLSLSP
light: not shown
notes: EU numbering; copies: 2 + 2
B3: IgG1-F296 (antibody)
heavy: QVQLQESGPGLVKPSETLSLTCAVSGHSISHDHAWSWVRQPPGEGLEWIGFISYSGITNYNPSLQGRVTISRDNSKNTLYLQMNSLRAEDTAVYYCARSLARTTAMDYWGEGTLVTVSSASTKGPSVFPLAPSSKSTSGGTAALGCLVKDYFPEPVTVSWNSGALTSGVHTFPAVLQSSGLYSLSSVVTVPSSSLGTQTYICNVNHKPSNTKVDKKVEPKSCDKTHTCPPCPAPELLGGPSVFLFPPKPKDTLYISRTPEVTCVVVDVSHEDPEVKFNWYVDGVEVHNAKTKPREEQYNSTYRVVSVLTVLHADWLNGKEYKCKVSNKALPAPIEKTISKAKGQPREPQVYTLPPSRDELTKNQVSLTCLVKGFYPSDIAVEWESNGQPENNYKTTPPVLDSDGSFFLYSKLTVDKSRWQQGNVFSCSVYHEALHYHYTQKSLSLSP
light: not shown
notes: EU numbering; copies: 2 + 2
B4: IgG1-F301 (antibody)
heavy: QVQLQESGPGLVKPSETLSLTCAVSGHSISHDHAWSWVRQPPGEGLEWIGFISYSGITNYNPSLQGRVTISRDNSKNTLYLQMNSLRAEDTAVYYCARSLARTTAMDYWGEGTLVTVSSASTKGPSVFPLAPSSKSTSGGTAALGCLVKDYFPEPVTVSWNSGALTSGVHTFPAVLQSSGLYSLSSVVTVPSSSLGTQTYICNVNHKPSNTKVDKKVEPKSCDKTHTCPPCPAPELLGGPKVFLFPPKPKDTLYISRTPEVTCVVVDVSHEDPEVKFNWYVDGVEVHNAKTKPREEQYNSTYRVVSVLTPLHAAWLNGKEYKCKVSNKALPAPIEKTISKAKGQPREPQVYTLPPSRDELTKNQVSLTCLVKGFYPSDIAVEWESNGQPENNYKTTPPVLDSDGSFFLYSKLTVDKSRWQQGNVFSCSVYHEALHYHYTQKSLSLSP
light: not shown
notes: EU numbering; copies: 2 + 2
B5: IgG1-F302 (antibody)
heavy: QVQLQESGPGLVKPSETLSLTCAVSGHSISHDHAWSWVRQPPGEGLEWIGFISYSGITNYNPSLQGRVTISRDNSKNTLYLQMNSLRAEDTAVYYCARSLARTTAMDYWGEGTLVTVSSASTKGPSVFPLAPSSKSTSGGTAALGCLVKDYFPEPVTVSWNSGALTSGVHTFPAVLQSSGLYSLSSVVTVPSSSLGTQTYICNVNHKPSNTKVDKKVEPKSCDKTHTCPPCPAPELLGGPSVFLFPPKPKDTLYISREPEVTCVVVDVSHEDPEVKFNWYVDGVEVHNAKTKPREEQYNSTYRVVSVLPVLHQDWLNGKEYKCKVSNKALPAPIEKTISKAKGQPREPQVYTLPPSRDELTKNQVSLTCLVKGFYPSDIAVEWESNGQPENNYKTTPPVLDSDGSFFLYSKLTVDKSRWQQGNVFSCSVMHEALHYHYTQKSLSLSP
light: not shown
notes: EU numbering; copies: 2 + 2
B6: IgG1-F300 (antibody)
heavy: QVQLQESGPGLVKPSETLSLTCAVSGHSISHDHAWSWVRQPPGEGLEWIGFISYSGITNYNPSLQGRVTISRDNSKNTLYLQMNSLRAEDTAVYYCARSLARTTAMDYWGEGTLVTVSSASTKGPSVFPLAPSSKSTSGGTAALGCLVKDYFPEPVTVSWNSGALTSGVHTFPAVLQSSGLYSLSSVVTVPSSSLGTQTYICNVNHKPSNTKVDKKVEPKSCDKTHTCPPCPAPELLGGPKVFLFPPKPKDTLYISRTPEVTCVVVDVSHEDPEVKFNWYVDGVEVHNAKTKPREEQYNSTYRVVSVLTPLHQAWLNGKEYKCKVSNKALPAPIEKTISKAKGQPREPQVYTLPPSRDELTKNQVSLTCLVKGFYPSDIAVEWESNGQPENNYKTTPPVLDSDGSFFLYSKLTVDKSRWQQGNVFSCSVYHEALHYHYTQKSLSLSP
light: not shown
notes: EU numbering; copies: 2 + 2
B7: IgG1-F297 (antibody)
heavy: QVQLQESGPGLVKPSETLSLTCAVSGHSISHDHAWSWVRQPPGEGLEWIGFISYSGITNYNPSLQGRVTISRDNSKNTLYLQMNSLRAEDTAVYYCARSLARTTAMDYWGEGTLVTVSSASTKGPSVFPLAPSSKSTSGGTAALGCLVKDYFPEPVTVSWNSGALTSGVHTFPAVLQSSGLYSLSSVVTVPSSSLGTQTYICNVNHKPSNTKVDKKVEPKSCDKTHTCPPCPAPELLGGPSVFLFPPKPKDTLYISRTPEVTCVVVDVSHEDPEVKFNWYVDGVEVHNAKTKPREEQYNSTYRVVSVLTVLHQAWLNGKEYKCKVSNKALPAPIEKTISKAKGQPREPQVYTLPPSRDELTKNQVSLTCLVKGFYPSDIAVEWESNGQPENNYKTTPPVLDSDGSFFLYSKLTVDKSRWQQGNVFSCSVYHEALHYHYTQKSLSLSP
light: not shown
notes: EU numbering; copies: 2 + 2
B8: IgG1-F299 (antibody)
heavy: QVQLQESGPGLVKPSETLSLTCAVSGHSISHDHAWSWVRQPPGEGLEWIGFISYSGITNYNPSLQGRVTISRDNSKNTLYLQMNSLRAEDTAVYYCARSLARTTAMDYWGEGTLVTVSSASTKGPSVFPLAPSSKSTSGGTAALGCLVKDYFPEPVTVSWNSGALTSGVHTFPAVLQSSGLYSLSSVVTVPSSSLGTQTYICNVNHKPSNTKVDKKVEPKSCDKTHTCPPCPAPELLGGPKVFLFPPKPKDTLYISRTPEVTCVVVDVSHEDPEVKFNWYVDGVEVHNAKTKPREEQYNSTYRVVSVLTPLHADWLNGKEYKCKVSNKALPAPIEKTISKAKGQPREPQVYTLPPSRDELTKNQVSLTCLVKGFYPSDIAVEWESNGQPENNYKTTPPVLDSDGSFFLYSKLTVDKSRWQQGNVFSCSVYHEALHYHYTQKSLSLSP
light: not shown
notes: EU numbering; copies: 2 + 2
B9: IgG1-F292 (antibody)
heavy: QVQLQESGPGLVKPSETLSLTCAVSGHSISHDHAWSWVRQPPGEGLEWIGFISYSGITNYNPSLQGRVTISRDNSKNTLYLQMNSLRAEDTAVYYCARSLARTTAMDYWGEGTLVTVSSASTKGPSVFPLAPSSKSTSGGTAALGCLVKDYFPEPVTVSWNSGALTSGVHTFPAVLQSSGLYSLSSVVTVPSSSLGTQTYICNVNHKPSNTKVDKKVEPKSCDKTHTCPPCPAPELLGGPKVFLFPPKPKDTLYISRTPEVTCVVVDVSHEDPEVKFNWYVDGVEVHNAKTKPREEQYNSTYRVVSVLTPLHQDWLNGKEYKCKVSNKALPAPIEKTISKAKGQPREPQVYTLPPSRDELTKNQVSLTCLVKGFYPSDIAVEWASNGQPENNYKTTPPVLDSDGSFFLYSKLTVDKSRWQQGNVFSCSVIHEALHYHYTQKSLSLSP
light: not shown
notes: EU numbering; copies: 2 + 2
B10: IgG1-F293 (antibody)
heavy: QVQLQESGPGLVKPSETLSLTCAVSGHSISHDHAWSWVRQPPGEGLEWIGFISYSGITNYNPSLQGRVTISRDNSKNTLYLQMNSLRAEDTAVYYCARSLARTTAMDYWGEGTLVTVSSASTKGPSVFPLAPSSKSTSGGTAALGCLVKDYFPEPVTVSWNSGALTSGVHTFPAVLQSSGLYSLSSVVTVPSSSLGTQTYICNVNHKPSNTKVDKKVEPKSCDKTHTCPPCPAPELLGGPSVFLFPPKPKDTLYISRTPEVTCVVVDVSHEDPEVKFNWYVDGVEVHNAKTKPREEQYNSTYRVVSVLTPLHQDWLNGKEYKCKVSNKALPAPIEKTISKAKGQPREPQVYTLPPSRDELTKNQVSLTCLVKGFYPSDIAVAWASNGQPENNYKTTPPVLDSDGSFFLYSKLTVDKSRWQQGNVFSCSVIHEALHYHYTQKSLSLSP
light: not shown
notes: EU numbering; copies: 2 + 2
B11: IgG1-F294 (antibody)
heavy: QVQLQESGPGLVKPSETLSLTCAVSGHSISHDHAWSWVRQPPGEGLEWIGFISYSGITNYNPSLQGRVTISRDNSKNTLYLQMNSLRAEDTAVYYCARSLARTTAMDYWGEGTLVTVSSASTKGPSVFPLAPSSKSTSGGTAALGCLVKDYFPEPVTVSWNSGALTSGVHTFPAVLQSSGLYSLSSVVTVPSSSLGTQTYICNVNHKPSNTKVDKKVEPKSCDKTHTCPPCPAPELLGGPKVFLFPPKPKDTLYISRTPEVTCVVVDVSHEDPEVKFNWYVDGVEVHNAKTKPREEQYNSTYRVVSVLTPLHQDWLNGKEYKCKVSNKALPAPIEKTISKAKGQPREPQVYTLPPSRDELTKNQVSLTCLVKGFYPSDIAVEWESNGQPENNYKTTPPVLDSDGSFFLYSKLTVDKSRWQQGNVFSCSVFHEALHYHYTQKSLSLSP
light: not shown
notes: EU numbering; copies: 2 + 2
B12: IgG1-F298 (antibody)
heavy: QVQLQESGPGLVKPSETLSLTCAVSGHSISHDHAWSWVRQPPGEGLEWIGFISYSGITNYNPSLQGRVTISRDNSKNTLYLQMNSLRAEDTAVYYCARSLARTTAMDYWGEGTLVTVSSASTKGPSVFPLAPSSKSTSGGTAALGCLVKDYFPEPVTVSWNSGALTSGVHTFPAVLQSSGLYSLSSVVTVPSSSLGTQTYICNVNHKPSNTKVDKKVEPKSCDKTHTCPPCPAPELLGGPSVFLFPPKPKDTLYISRTPEVTCVVVDVSHEDPEVKFNWYVDGVEVHNAKTKPREEQYNSTYRVVSVLTVLHAAWLNGKEYKCKVSNKALPAPIEKTISKAKGQPREPQVYTLPPSRDELTKNQVSLTCLVKGFYPSDIAVEWESNGQPENNYKTTPPVLDSDGSFFLYSKLTVDKSRWQQGNVFSCSVYHEALHYHYTQKSLSLSP
light: not shown
notes: EU numbering; copies: 2 + 2
B13: IgG1-F303 (antibody)
heavy: QVQLQESGPGLVKPSETLSLTCAVSGHSISHDHAWSWVRQPPGEGLEWIGFISYSGITNYNPSLQGRVTISRDNSKNTLYLQMNSLRAEDTAVYYCARSLARTTAMDYWGEGTLVTVSSASTKGPSVFPLAPSSKSTSGGTAALGCLVKDYFPEPVTVSWNSGALTSGVHTFPAVLQSSGLYSLSSVVTVPSSSLGTQTYICNVNHKPSNTKVDKKVEPKSCDKTHTCPPCPAPELLGGPSVFLFPPKPKDTLYISRTPEVTCVVVDVSHEDPEVKFNWYVDGVEVHNAKTKPREEQYNSTYRVVSVLPVLHQDWLNGKEYKCKVSNKALPAPIEKTISKAKGQPREPQVYTLPPSRDELTKNQVSLTCLVKGFYPSDIAVEWESNGQPENNYKTTPPVLDSDGSFFLYSKLTVDKSRWQQGNVFSCSVYHEALHYHYTQKSLSLSP
light: not shown
notes: EU numbering; copies: 2 + 2

Each binder was assayed against T1, human FcRn (soluble human FcRn complexed with β2-microglobulin) (human, UniProt P61769 21-119, limits assumed) (assay: SPR, pH 7.0;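 also: antibodies captured on a Protein L sensor chip with human FcRn injected as analyte, KD calculated from fitted association and dissociation rate constants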).
T1 construct: also called hFcRn
T1 sequence (chain, as listed by the source limits assumed, chain 1 of 2): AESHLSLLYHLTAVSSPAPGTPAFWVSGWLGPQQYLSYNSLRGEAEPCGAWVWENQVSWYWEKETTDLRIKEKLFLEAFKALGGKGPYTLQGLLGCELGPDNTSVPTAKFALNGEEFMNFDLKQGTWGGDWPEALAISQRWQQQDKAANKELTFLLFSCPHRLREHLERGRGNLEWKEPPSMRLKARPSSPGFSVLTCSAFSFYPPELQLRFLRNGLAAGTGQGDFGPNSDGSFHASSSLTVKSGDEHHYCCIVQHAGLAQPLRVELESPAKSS
T1 sequence (P61769 21-119 limits assumed, chain 2 of 2): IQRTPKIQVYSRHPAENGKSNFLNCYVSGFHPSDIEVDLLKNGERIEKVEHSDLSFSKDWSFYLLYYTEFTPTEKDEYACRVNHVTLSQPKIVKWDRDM

B1 and B2 are within 1.5-fold of each other in Kd: 460 nM for the first, 680 nM for the second.

Going from B3 to B4, the Kd falls from 490 nM to 72 nM (6.8-fold). The second binds more tightly here.

Going from B5 to B6, the Kd falls from 190 nM to 83 nM (2.3-fold). The second binds more tightly here.

Compared with B7, B8 is 5.4-fold lower in Kd: 510 nM for the first, 94 nM for the second. The second binds more tightly here.

Going from B9 to B10, the Kd rises from 23 nM to 53 nM (2.3-fold). The first binds more tightly here.

First: B11
Second: B12
The Kd of the first is 4.4-fold lower: 110 nM for the first, 480 nM for the second. The first binds more tightly here.

B13 gave a Kd of 670 nM.
